The record followed here is PMC13123425.

This assay has as its target human VWF-A2 fragment (human).

Sequence of human recombinant wild-type complement factor H (P08603 19-1231): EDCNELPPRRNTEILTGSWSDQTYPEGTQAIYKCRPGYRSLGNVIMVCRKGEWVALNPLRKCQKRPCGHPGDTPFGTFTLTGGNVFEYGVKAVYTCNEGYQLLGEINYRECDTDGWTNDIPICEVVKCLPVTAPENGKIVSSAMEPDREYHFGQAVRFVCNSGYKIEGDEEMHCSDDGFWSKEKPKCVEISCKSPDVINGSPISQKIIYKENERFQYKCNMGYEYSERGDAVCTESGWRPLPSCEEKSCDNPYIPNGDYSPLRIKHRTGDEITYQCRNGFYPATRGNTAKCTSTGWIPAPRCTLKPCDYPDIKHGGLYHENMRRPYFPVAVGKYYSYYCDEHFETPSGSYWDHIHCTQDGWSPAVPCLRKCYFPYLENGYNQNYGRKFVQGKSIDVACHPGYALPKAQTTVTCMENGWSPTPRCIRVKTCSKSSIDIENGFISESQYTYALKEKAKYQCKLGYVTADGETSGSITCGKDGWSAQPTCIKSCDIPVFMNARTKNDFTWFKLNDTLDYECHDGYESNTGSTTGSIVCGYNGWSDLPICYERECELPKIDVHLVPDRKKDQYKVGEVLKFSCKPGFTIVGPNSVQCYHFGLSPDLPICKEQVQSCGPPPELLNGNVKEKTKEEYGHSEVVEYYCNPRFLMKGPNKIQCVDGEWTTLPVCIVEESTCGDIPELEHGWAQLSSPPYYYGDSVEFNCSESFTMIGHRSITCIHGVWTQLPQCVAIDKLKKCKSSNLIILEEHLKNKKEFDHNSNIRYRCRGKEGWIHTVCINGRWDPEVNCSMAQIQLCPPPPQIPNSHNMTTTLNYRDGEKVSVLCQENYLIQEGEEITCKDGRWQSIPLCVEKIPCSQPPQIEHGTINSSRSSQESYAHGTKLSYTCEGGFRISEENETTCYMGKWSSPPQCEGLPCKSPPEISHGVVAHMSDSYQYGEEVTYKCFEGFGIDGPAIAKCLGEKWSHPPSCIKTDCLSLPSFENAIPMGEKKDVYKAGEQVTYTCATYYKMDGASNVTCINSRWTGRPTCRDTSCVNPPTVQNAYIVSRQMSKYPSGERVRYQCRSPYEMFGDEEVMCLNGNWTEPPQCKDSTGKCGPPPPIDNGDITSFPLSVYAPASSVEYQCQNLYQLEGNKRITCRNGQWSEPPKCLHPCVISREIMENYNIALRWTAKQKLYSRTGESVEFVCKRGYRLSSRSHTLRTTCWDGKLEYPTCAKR

Turning to “human recombinant wild-type complement factor H (from UniProt P08603 19-1231) (natural protein)”, the optical tweezer pulling of VWF-A2 (Avi-His/SpyTag, biotinylated construct) with 1.0 μM WT-CFH: contour length Lc (no CFH: 55,3 nm) was found to be 40 nm; the optical tweezer pulling of VWF-A2 with 1.0 μM WT-CFH: energy barrier position γ, Bell-Evans fit (no CFH: 0.71 nm) was 1.88 nm; the optical tweezer pulling of VWF-A2 with 1.0 μM WT-CFH: persistent length Lp (no CFH: 0.28 nm) was 0.38 nm; the optical tweezer pulling of VWF-A2 with 1.0 μM WT-CFH: unstressed unfolding rate ku0, Bell-Evans fit (no CFH: 0.15 s^-1) amounted to 0.017 s⁻¹.
On to “human recombinant W1183R complement factor H (from UniProt P08603 19-1231) (natural protein)”, for which the optical tweezer pulling of VWF-A2 (Avi-His/SpyTag, biotinylated construct) with 1.0 μM W1183R-CFH: contour length Lc (no CFH: 55,3 nm) was determined as 31.8 nm; the optical tweezer pulling of VWF-A2 with 1.0 μM W1183R-CFH: energy barrier position γ, Bell-Evans fit (no CFH: 0.71 nm) came to 1.38 nm; the optical tweezer pulling of VWF-A2 with 1.0 μM W1183R-CFH: persistent length Lp (no CFH: 0.28 nm) was determined as 0.38 nm; the optical tweezer pulling of VWF-A2 with 1.0 μM W1183R-CFH: unstressed unfolding rate ku0, Bell-Evans fit (no CFH: 0.15 s^-1) is 0.034 s⁻¹.
